The target of experiment [1] is T1, human CTLA4 expressed on the cell surface of CHO cells (human, UniProt P16410 36-223).
T1 construct: whole, on cells; also called CHO-huCTLA4; huCTLA4
T1 sequence (looked up): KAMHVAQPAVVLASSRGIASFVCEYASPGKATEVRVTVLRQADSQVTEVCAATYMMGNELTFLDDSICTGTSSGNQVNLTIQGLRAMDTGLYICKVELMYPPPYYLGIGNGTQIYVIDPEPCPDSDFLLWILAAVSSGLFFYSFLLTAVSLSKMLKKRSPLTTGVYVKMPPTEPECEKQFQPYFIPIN
The experiment can be described thus: FACS, cells expressing human CTLA4, assay pH 6.0, MFI; lot 6972 in Tris buffer, T0; unit from the axis Log[ng/mL]. The procedure: (§1) The amount of bound antibodies was quantified using anti-human IgG antibody conjugated to fluorophores. The MFI in each reaction was proportional to the amount of antibodies bound. The EC₅₀ value (in ng/mL) for binding to human CTLA4 on cells was determined by MFI of the singlets population against antibody concentration with a Prism variable slope of four-parameter dose-response curve, which was calculated using the nonlinear fit (variable slope, four parameters) model built into GraphPad Prism software (version 7.03).

The target of experiment [2] is T2, human CTLA4 on CTLA4 Jurkat effector cells (Promega CTLA4 Blockade Assay) (human, UniProt P16410 36-223).
T2 sequence (looked up): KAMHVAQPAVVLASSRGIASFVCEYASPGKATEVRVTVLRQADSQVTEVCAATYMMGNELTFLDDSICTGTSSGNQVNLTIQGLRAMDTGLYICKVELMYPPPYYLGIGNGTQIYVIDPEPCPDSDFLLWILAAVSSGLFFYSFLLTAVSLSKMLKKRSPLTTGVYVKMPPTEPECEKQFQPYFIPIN
The experiment can be described thus: cell-based or functional assay.

The target of experiment [3] is T3, recombinant human CTLA4 extracellular domain (human, UniProt P16410 36-161).
T3 construct: extracellular domain; also called huCTLA-4
T3 sequence (looked up): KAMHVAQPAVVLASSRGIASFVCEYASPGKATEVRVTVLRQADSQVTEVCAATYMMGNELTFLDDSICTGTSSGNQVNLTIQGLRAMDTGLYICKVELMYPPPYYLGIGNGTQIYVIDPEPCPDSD
The experiment can be described thus: ELISA, wells coated with human CTLA4, assay pH 6.0; lot 6972 in His buffer, T2W; unit from the axis Log[ng/mL]. On the procedure: (§2) Both ELISA and FACS analysis were used to measure the binding activity. […] The amount of bound antibodies was quantified using anti-human IgG antibody conjugated to HRP. The absorbance at 450 nm in each measurement was proportional to the amount of antibodies bound. […] EC50 value (in ng/mL) for binding to human CTLA4 was determined by absorbance at 450 nm against antibody concentration with Prism variable slope of four-parameter dose-response curve, which was calculated using the nonlinear fit (variable slope, four parameters) model built into GraphPad Prism software (version 7.03). The buffers tested included His buffer (His), Tris buffer (Tris), Glutamine buffer (Glu) and no buffer.

Experiment [4] addresses T1, human CTLA4 expressed on the cell …. The experiment can be described thus: FACS, cells expressing human CTLA4, assay pH 7.4, MFI; lot 6972 in Tris buffer, T2W; unit from the axis Log[ng/mL]. On the procedure: as §1
The target of experiment [5] is T3, recombinant human CTLA4 extracellular …. The experiment can be described thus: ELISA, wells coated with human CTLA4, assay pH 6.0; lot 6972 in Glu buffer, T2W; unit from the axis Log[ng/mL]. The procedure: as §2
(An ELISA detects its analyte on a solid surface through an enzyme-linked reagent.)

For experiment [6] the target is unchanged. The experiment can be described thus: ELISA, wells coated with human CTLA4, assay pH 6.0; lot 6978 in Glu buffer, T2W; unit from the axis Log[ng/mL]. On the procedure: as §2
Experiment [7] shares this target. The experiment in a line: ELISA, wells coated with human CTLA4, assay pH 7.4; lot 6978 in Tris buffer, T2W; curve still rising at log 3 (OD450 at most about 0.3), no plateau; unit from the axis Log[ng/mL]. On the procedure:
as §2

Experiment [8] addresses T1, human CTLA4 expressed on the cell …. The experiment can be described thus: FACS, cells expressing human CTLA4, assay pH 6.0, MFI; lot 6978 in His buffer, T0; unit from the axis Log[ng/mL]. On the procedure:
as §1
A general note: A flow cytometer gives signals particle by particle.

Experiment [9] concerns the target T3, recombinant human CTLA4 extracellular …. The experiment can be described thus: ELISA, wells coated with human CTLA4, assay pH 7.4; lot 6978 in Glu buffer, T0; curve still rising at log 3 (OD450 at most about 0.3), no plateau; unit from the axis Log[ng/mL]. On the procedure:
as §2

For experiment [10], the target named is T4, cynomolgus CTLA4 expressed on the cell surface of CHO cells (cynomolgus, UniProt G7PL88 36-223).
T4 construct: whole, on cells; also called CHO-cynoCTLA4
T4 sequence: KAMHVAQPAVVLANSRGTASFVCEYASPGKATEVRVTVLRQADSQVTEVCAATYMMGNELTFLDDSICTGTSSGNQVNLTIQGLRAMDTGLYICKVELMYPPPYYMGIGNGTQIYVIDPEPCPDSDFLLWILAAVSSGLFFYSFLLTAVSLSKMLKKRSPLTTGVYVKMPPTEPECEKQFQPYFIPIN
The experiment in a line: FACS saturation, CHO-cynoCTLA-4, pH 7.4, MFI, titration up to about log 6.5; at baseline up to about log 4.5, about 100000 at the end, no plateau; no unit in the table, unit from the axis Log Antibodies [ng/ml]. On the procedure:
The amount of antibodies bound on the cells was quantified using anti-human IgG antibody conjugated to fluorophores. EC₅₀ values at pH 6.0 and 7.4 for binding to cells were calculated using the nonlinear fit (variable slope, four parameters) model built into GraphPad Prism software (version 7.03). The expression levels of human CTLA4 or cynomolgus CTLA4 on the surface of the CHO cells were determined using a BD QuantiBRITE™ PE kit.
Finally, saturations of the antibodies on the CHO cells expressing human or cynomolgus CTLA4 at pH 7.4 were also measured by FACS (FIGS. 8A-8B).

Experiment [11] addresses T1, human CTLA4 expressed on the cell …. The experiment can be described thus: FACS, cells expressing human CTLA4, assay pH 7.4, MFI; lot 6978 in Glu buffer, T0; unit from the axis Log[ng/mL]. On the procedure:
as §1

The target of experiment [12] is T3, recombinant human CTLA4 extracellular …. The experiment in a line: ELISA, wells coated with human CTLA4, assay pH 6.0; lot 6978 in Tris buffer, T2W; unit from the axis Log[ng/mL]. The procedure: as §2

B1: BA-087-05-19 (antibody, V domains shown)
VH: EVQLVESGGGLVQPGGSLRLSCAASGFTFSHYTMHWVRQAPGKGLEWVSFISYDGNNKYYADSVKGRFTISRDNSKNTLYLQMNSLRAEDTAVYYCARTGWLGPFDYWGQGTLVTVSS
VL: AIQLTQSPSSLSASVGDRVTITCRASQYVGSSYLAWYLQKPGQSPQLLIYGAFSRATGIPARFSGSGSGTEFTLTISSLQSEDFAVYYCQQDGSSPWTFGQGTKVEIK
notes: Detected with anti-human IgG and a molecular weight of 146 kDa was used in SPR, so it was tested as a whole IgG; also called BA-087-05-019; BA-087-05-19 (# 6972)
Regarding B1, the EC50 (usually the concentration giving half of the maximal effect) in [1] was 0.291 µg/mL; in experiment [3], 0.00704 µg/mL; in experiment [4], 0.537 µg/mL; in experiment [5], 0.00266 µg/mL. The “EC50 of bioluminescence (RLUs), Promega CTLA4 Blockade Assay, pH 6.0; unit from the axis Log (µg/mL)” value in experiment [2] amounted to 1.2 µg/mL.

B2: BA-087-08-32 (antibody, V domains shown)
VH: EVQLVQSGAEVKKPGATVKISCKVSGFTFSHYTMHWIRQSPSRGLEWLGFISYDGNYKYYADSVKGRFTISRDNAKNSLYLQMNSLRAEDTAVYYCARTGWLGPFDYWGQGTLVTVSS
VL: EIVMTQSPATLSVSPGERATLSCRASQSVGSSYLAWYQQKPGKAPKLLIYGAFSRATGVPSRFSGSGSGTDFTLTISSLQPEDFATYYCQQDGSSPWTFGQGTKVEIK
notes: Detected with anti-human IgG and a molecular weight of 146 kDa was used in SPR, so it was tested as a whole IgG; also called BA-087-08-032; BA-087-08-32 (# 6978)
On to B2, for which the EC50 in [6] came to 0.0123 µg/mL; in experiment [7] it was 1.49 µg/mL; in experiment [8] it was 0.159 µg/mL; in experiment [9], 1.19 µg/mL; in experiment [10] it was 1650 µg/mL; in [11] it was 0.814 µg/mL. In [12], the EC50 came to 0.014 µg/mL.

The values are drawn from patent publication US20210403565A1 (BIOATLA, published 2021).
